# Measured values published in patent US11078465B2, “Alcohol dehydrogenase mutant and application thereof in synthesis of diaryl chiral alcohols” (Jiangnan University, priority 2018, dated 2021).
# Where “and” joins values, the source holds several entries; their conditions need not be identical. Equal values may be shown once.
# What was measured:
# [1] = Stereoselectivity (ee) of CPMK reduction, chiral liquid chromatography; format: biochemical; settings: for ee % / e.e.: product configuration in brackets
# Experimental: In an embodiment of the present disclosure, a chromatographic analysis method is as follows: 100 μL of reactant liquid is taken, 500 μL of ethyl acetate is added, shaking is performed for 1-2 min, centrifugation is performed at 12,000 rpm for 2-5 min, supernatant liquid is taken into a centrifuge tube, after an organic phase naturally volatilizes completely, 500 μL of chromatographically pure ethanol is added, and chiral liquid chromatography and gas chromatography are performed to analyze the transformation rate and the ee value.
# Method for determining optical purity ee:
# As: molar concentration of (S)-CPMA obtained by liquid chromatography; and AR: molar concentration of (R)-CPMA obtained by liquid chromatography.
# [2] = Kinetic analysis of alcohol dehydrogenase and mutants (NADPH oxidation, 340 nm, double reciprocal curve); format: biochemical; settings: substrate CPMK
# Experimental: Adopting a total reaction system of 200 μL, including: 1.0 mM NADPH, 1.0 mM substrate CPMK and sodium phosphate buffer (PBS, 100 mM, pH 7.0), fully and evenly mixing, maintaining at 30° C. for 2 min, adding an appropriate amount of enzyme solution, and detecting the change in light absorption at 340 nm.
# The enzyme activity was calculated by the following formula: Enzyme activity (U)=EW×V×10^3/(6220×I);
# in the formula, EW is the change in absorbance at 340 nm in 1 min; V is the volume of a reaction solution in mL; 6220 is the molar extinction coefficient of NADPH in L/mol·cm); and 1 is the optical path distance in cm. One activity unit (U) corresponds to the amount of enzyme required to catalyze the oxidation of 1 μmol NADPH per minute under the above conditions.
# A column used for purification was a nickel affinity column HisTrap FF crude, and purification was achieved through affinity chromatography using a histidine tag on recombinant protein. The nickel column was equilibrated with a solution A first, a crude enzyme solution was loaded, a penetrating peak was further eluted off using the solution A, and after equilibrium, a solution B (20 mM sodium phosphate, 500 mM NaCl, and 1000 mM imidazole, pH 7.4) was used for gradient elution to elute off the recombinant protein bound to the nickel column, so as to obtain the recombinant alcohol dehydrogenase mutant. The purified protein was subjected to activity measurement (CPMK as substrate, and NADPH as coenzyme) and SDS-PAGE analysis. […] The purified alcohol dehydrogenase protein was then replaced into a Tris-HCl (100 mM, pH 7.0) buffer using a Hi Trap Desalting column (GE Healthcare).
# The activity of KpADH at different substrate concentrations and coenzyme concentrations was determined, and a double reciprocal curve was made based on the reciprocal of activity and substrate concentration to calculate kinetic parameters.
Molecule,"ee value, (R)-CPMA ([1]; R configuration product)",ee % [1],Kcat [2] [s⁻¹],Km [2] [µM],Vmax [2] [µM/min/mg],configuration of product / stereoselectivity in words [1],e.e. [1]
"E214V: valine for glutamate at position 214 of the alcohol dehydrogenase of SEQ ID No. 2 (protein, Protein translated from synthetic DNA) MSVLISGASGYIAKHIVRVLLEQNYKVIGTVRSQDKADKLLKQYNNPNLSYEIVPEIANLDAFDDIFKKHGKEIKYVIHAASPVNFGAKDLEKDLVIPAINGTKNMFEAIKKYAPDTVERVVMTASYASIMTPHRQNDPTLTLDEETWNPVTEENAYENVFTAYCASKTFAEKEAWKFVKENSDAVKFKLTTIHPSFVFGPQNFDEDVTKKLNVTCEIINGLLHAPFDTKVEKTHFSQFIDVRDVAKTHVLGFQKDELINQRLLLCNGAFSQQDIVNVFNEDFPELKGQFPPEDKDTDLNKGVTGCKIDNEKTKKLLAFEFTPFHKTIHDTVYQILHKEGRV",91% and 95.3%,95.3 (R) %,8.91 ± 0.48,420,13.36 ± 0.89,,
"E214Q: glutamine for glutamate at position 214 of the alcohol dehydrogenase of SEQ ID No. 2 (protein, Protein translated from synthetic DNA) MSVLISGASGYIAKHIVRVLLEQNYKVIGTVRSQDKADKLLKQYNNPNLSYEIVPEIANLDAFDDIFKKHGKEIKYVIHAASPVNFGAKDLEKDLVIPAINGTKNMFEAIKKYAPDTVERVVMTASYASIMTPHRQNDPTLTLDEETWNPVTEENAYENVFTAYCASKTFAEKEAWKFVKENSDAVKFKLTTIHPSFVFGPQNFDEDVTKKLNQTCEIINGLLHAPFDTKVEKTHFSQFIDVRDVAKTHVLGFQKDELINQRLLLCNGAFSQQDIVNVFNEDFPELKGQFPPEDKDTDLNKGVTGCKIDNEKTKKLLAFEFTPFHKTIHDTVYQILHKEGRV",,58.5 (R) %,16.26 ± 1.33,1300 ± 200,24.4 ± 0.20,,
"E214S: serine for glutamate at position 214 of the alcohol dehydrogenase of SEQ ID No. 2 (protein, Protein translated from synthetic DNA) MSVLISGASGYIAKHIVRVLLEQNYKVIGTVRSQDKADKLLKQYNNPNLSYEIVPEIANLDAFDDIFKKHGKEIKYVIHAASPVNFGAKDLEKDLVIPAINGTKNMFEAIKKYAPDTVERVVMTASYASIMTPHRQNDPTLTLDEETWNPVTEENAYENVFTAYCASKTFAEKEAWKFVKENSDAVKFKLTTIHPSFVFGPQNFDEDVTKKLNSTCEIINGLLHAPFDTKVEKTHFSQFIDVRDVAKTHVLGFQKDELINQRLLLCNGAFSQQDIVNVFNEDFPELKGQFPPEDKDTDLNKGVTGCKIDNEKTKKLLAFEFTPFHKTIHDTVYQILHKEGRV",,14.2 (R) %,11.86 ± 0.48,540 ± 70,17.79 ± 0.88,,
"E214R: arginine for glutamate at position 214 of the alcohol dehydrogenase of SEQ ID No. 2 (protein, Protein translated from synthetic DNA) MSVLISGASGYIAKHIVRVLLEQNYKVIGTVRSQDKADKLLKQYNNPNLSYEIVPEIANLDAFDDIFKKHGKEIKYVIHAASPVNFGAKDLEKDLVIPAINGTKNMFEAIKKYAPDTVERVVMTASYASIMTPHRQNDPTLTLDEETWNPVTEENAYENVFTAYCASKTFAEKEAWKFVKENSDAVKFKLTTIHPSFVFGPQNFDEDVTKKLNRTCEIINGLLHAPFDTKVEKTHFSQFIDVRDVAKTHVLGFQKDELINQRLLLCNGAFSQQDIVNVFNEDFPELKGQFPPEDKDTDLNKGVTGCKIDNEKTKKLLAFEFTPFHKTIHDTVYQILHKEGRV",,42.5 (R) %,15.85 ± 0.49,980 ± 80,23.77 ± 0.90,,
"E214G: glycine for glutamate at position 214 of the alcohol dehydrogenase of SEQ ID No. 2 (protein, Protein translated from synthetic DNA) MSVLISGASGYIAKHIVRVLLEQNYKVIGTVRSQDKADKLLKQYNNPNLSYEIVPEIANLDAFDDIFKKHGKEIKYVIHAASPVNFGAKDLEKDLVIPAINGTKNMFEAIKKYAPDTVERVVMTASYASIMTPHRQNDPTLTLDEETWNPVTEENAYENVFTAYCASKTFAEKEAWKFVKENSDAVKFKLTTIHPSFVFGPQNFDEDVTKKLNGTCEIINGLLHAPFDTKVEKTHFSQFIDVRDVAKTHVLGFQKDELINQRLLLCNGAFSQQDIVNVFNEDFPELKGQFPPEDKDTDLNKGVTGCKIDNEKTKKLLAFEFTPFHKTIHDTVYQILHKEGRV",,25.6 (S) %,5.5 ± 0.10,250,8.26 ± 0.15,inversion from an R configuration to an S configuration,25.6 (S)
"E214N: asparagine for glutamate at position 214 of the alcohol dehydrogenase of SEQ ID No. 2 (protein, Protein translated from synthetic DNA) MSVLISGASGYIAKHIVRVLLEQNYKVIGTVRSQDKADKLLKQYNNPNLSYEIVPEIANLDAFDDIFKKHGKEIKYVIHAASPVNFGAKDLEKDLVIPAINGTKNMFEAIKKYAPDTVERVVMTASYASIMTPHRQNDPTLTLDEETWNPVTEENAYENVFTAYCASKTFAEKEAWKFVKENSDAVKFKLTTIHPSFVFGPQNFDEDVTKKLNNTCEIINGLLHAPFDTKVEKTHFSQFIDVRDVAKTHVLGFQKDELINQRLLLCNGAFSQQDIVNVFNEDFPELKGQFPPEDKDTDLNKGVTGCKIDNEKTKKLLAFEFTPFHKTIHDTVYQILHKEGRV",,58.1 (R) %,22.90 ± 1.12,420 ± 60,34.35 ± 2.05,,
"S237A: alcohol dehydrogenase mutant obtained by random mutation screening (protein, Protein translated from synthetic DNA, alcohol dehydrogenase mutant obtained by random mutation screening) MSVLISGASGYIAKHIVRVLLEQNYKVIGTVRSQDKADKLLKQYNNPNLSYEIVPEIANLDAFDDIFKKHGKEIKYVIHAASPVNFGAKDLEKDLVIPAINGTKNMFEAIKKYAPDTVERVVMTASYASIMTPHRQNDPTLTLDEETWNPVTEENAYENVFTAYCASKTFAEKEAWKFVKENSDAVKFKLTTIHPSFVFGPQNFDEDVTKKLNITCEIINGLLHAPFDTKVEKTHFAQFIDVRDVAKTHVLGFQKDELINQRLLLCNGAFSQQDIVNVFNEDFPELKGQFPPEDKDTDLNKGVTGCKIDNEKTKKLLAFEFTPFHKTIHDTVYQILHKEGRV",,,,,,,96.1 (R)
"E214I: isoleucine for glutamate at position 214 of the alcohol dehydrogenase of SEQ ID No. 2 (protein, Protein translated from synthetic DNA) MSVLISGASGYIAKHIVRVLLEQNYKVIGTVRSQDKADKLLKQYNNPNLSYEIVPEIANLDAFDDIFKKHGKEIKYVIHAASPVNFGAKDLEKDLVIPAINGTKNMFEAIKKYAPDTVERVVMTASYASIMTPHRQNDPTLTLDEETWNPVTEENAYENVFTAYCASKTFAEKEAWKFVKENSDAVKFKLTTIHPSFVFGPQNFDEDVTKKLNITCEIINGLLHAPFDTKVEKTHFSQFIDVRDVAKTHVLGFQKDELINQRLLLCNGAFSQQDIVNVFNEDFPELKGQFPPEDKDTDLNKGVTGCKIDNEKTKKLLAFEFTPFHKTIHDTVYQILHKEGRV",,93.0 (R) %,8.77 ± 0.23,410 ± 40,13.15 ± 0.43,,
"S237C: alcohol dehydrogenase mutant obtained by random mutation screening (protein, Protein translated from synthetic DNA, alcohol dehydrogenase mutant obtained by random mutation screening) MSVLISGASGYIAKHIVRVLLEQNYKVIGTVRSQDKADKLLKQYNNPNLSYEIVPEIANLDAFDDIFKKHGKEIKYVIHAASPVNFGAKDLEKDLVIPAINGTKNMFEAIKKYAPDTVERVVMTASYASIMTPHRQNDPTLTLDEETWNPVTEENAYENVFTAYCASKTFAEKEAWKFVKENSDAVKFKLTTIHPSFVFGPQNFDEDVTKKLNGTCEIINGLLHAPFDTKVEKTHFCQFIDVRDVAKTHVLGFQKDELINQRLLLCNGAFSQQDIVNVFNEDFPELKGQFPPEDKDTDLNKGVTGCKIDNEKTKKLLAFEFTPFHKTIHDTVYQILHKEGRV",,,,,,,27 (R)
